In paper doi:10.1101/2020.10.05.326918 (bioRxiv, 2020):

Legend:
Assay in all cases: cryo-EM structure
MED7 = molecular target: T1, MED7 (Mus musculus (endogenous in CH12 cells), UniProt Q9CZB6 1-233)
T1 sequence (looked up): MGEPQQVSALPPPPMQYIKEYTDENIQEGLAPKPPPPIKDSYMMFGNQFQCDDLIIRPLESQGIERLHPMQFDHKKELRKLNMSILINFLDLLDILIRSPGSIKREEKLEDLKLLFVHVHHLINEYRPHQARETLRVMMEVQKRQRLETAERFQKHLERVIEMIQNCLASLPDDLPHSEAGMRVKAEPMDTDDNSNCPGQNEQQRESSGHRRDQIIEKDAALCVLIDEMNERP

MED30 = molecular target: T2, MED30 (Mus musculus (endogenous in CH12 cells), UniProt Q9CQI9 1-178)
T2 sequence (looked up): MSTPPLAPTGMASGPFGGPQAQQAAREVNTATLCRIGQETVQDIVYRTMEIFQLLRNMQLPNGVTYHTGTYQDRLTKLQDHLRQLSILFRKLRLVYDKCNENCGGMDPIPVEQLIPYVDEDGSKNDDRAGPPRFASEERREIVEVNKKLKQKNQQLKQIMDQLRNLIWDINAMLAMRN

MED28 = molecular target: T3, MED28 (Mus musculus (endogenous in CH12 cells), UniProt Q920D3 1-178)
T3 sequence (looked up): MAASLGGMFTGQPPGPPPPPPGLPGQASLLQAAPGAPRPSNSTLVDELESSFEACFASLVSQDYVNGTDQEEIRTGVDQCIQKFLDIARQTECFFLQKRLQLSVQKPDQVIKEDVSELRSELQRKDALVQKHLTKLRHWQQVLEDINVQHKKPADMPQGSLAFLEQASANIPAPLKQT

MED22 = molecular target: T4, MED22 (Mus musculus (endogenous in CH12 cells), UniProt Q62276 1-200)
T4 sequence (looked up): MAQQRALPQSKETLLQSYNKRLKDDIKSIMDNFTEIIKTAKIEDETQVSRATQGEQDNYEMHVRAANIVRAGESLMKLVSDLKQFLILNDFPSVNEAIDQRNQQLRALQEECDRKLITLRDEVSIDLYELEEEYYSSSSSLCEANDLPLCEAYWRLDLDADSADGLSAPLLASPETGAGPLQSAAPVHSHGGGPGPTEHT

MED17 = molecular target: T5, MED17 (Mus musculus (endogenous in CH12 cells), UniProt Q8VCD5 1-649)
T5 sequence (looked up): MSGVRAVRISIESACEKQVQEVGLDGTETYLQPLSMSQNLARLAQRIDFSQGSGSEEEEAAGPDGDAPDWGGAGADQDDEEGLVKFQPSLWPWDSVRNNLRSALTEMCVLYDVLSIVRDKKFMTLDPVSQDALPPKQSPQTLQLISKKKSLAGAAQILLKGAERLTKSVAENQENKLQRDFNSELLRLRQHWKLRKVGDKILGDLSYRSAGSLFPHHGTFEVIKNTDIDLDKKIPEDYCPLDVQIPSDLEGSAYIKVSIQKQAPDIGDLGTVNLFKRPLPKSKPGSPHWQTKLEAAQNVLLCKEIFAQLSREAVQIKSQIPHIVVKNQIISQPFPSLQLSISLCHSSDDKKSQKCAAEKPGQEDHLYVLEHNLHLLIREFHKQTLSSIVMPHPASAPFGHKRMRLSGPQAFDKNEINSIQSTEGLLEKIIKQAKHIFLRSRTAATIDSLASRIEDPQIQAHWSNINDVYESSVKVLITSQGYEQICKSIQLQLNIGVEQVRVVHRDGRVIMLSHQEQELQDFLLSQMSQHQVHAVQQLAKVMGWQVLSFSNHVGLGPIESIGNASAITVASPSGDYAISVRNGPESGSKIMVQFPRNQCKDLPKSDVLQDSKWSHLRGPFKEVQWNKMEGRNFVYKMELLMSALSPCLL

MED27 = molecular target: T6, MED27 (Mus musculus (endogenous in CH12 cells), UniProt Q9DB40 1-311)
T6 sequence (looked up): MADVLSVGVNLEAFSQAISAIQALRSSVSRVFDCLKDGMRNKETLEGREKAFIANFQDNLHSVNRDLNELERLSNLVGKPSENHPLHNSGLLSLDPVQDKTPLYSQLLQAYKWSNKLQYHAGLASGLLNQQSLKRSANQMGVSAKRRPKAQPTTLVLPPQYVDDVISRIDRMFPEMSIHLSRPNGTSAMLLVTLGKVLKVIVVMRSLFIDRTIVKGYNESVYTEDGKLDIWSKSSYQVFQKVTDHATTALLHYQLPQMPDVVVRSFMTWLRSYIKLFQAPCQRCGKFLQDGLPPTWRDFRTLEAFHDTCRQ

MED20 = molecular target: T7, MED20 (Mus musculus (endogenous in CH12 cells), UniProt Q9R0X0 1-212)
T7 sequence (looked up): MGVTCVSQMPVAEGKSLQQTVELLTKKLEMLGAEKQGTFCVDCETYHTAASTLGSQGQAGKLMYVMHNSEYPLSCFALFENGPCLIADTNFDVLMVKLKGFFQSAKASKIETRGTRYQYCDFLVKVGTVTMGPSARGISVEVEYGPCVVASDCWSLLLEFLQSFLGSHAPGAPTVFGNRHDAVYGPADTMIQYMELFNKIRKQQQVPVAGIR

MED4 = molecular target: T8, MED4 (Mus musculus (endogenous in CH12 cells), UniProt Q9CQA5 1-270)
T8 sequence (looked up): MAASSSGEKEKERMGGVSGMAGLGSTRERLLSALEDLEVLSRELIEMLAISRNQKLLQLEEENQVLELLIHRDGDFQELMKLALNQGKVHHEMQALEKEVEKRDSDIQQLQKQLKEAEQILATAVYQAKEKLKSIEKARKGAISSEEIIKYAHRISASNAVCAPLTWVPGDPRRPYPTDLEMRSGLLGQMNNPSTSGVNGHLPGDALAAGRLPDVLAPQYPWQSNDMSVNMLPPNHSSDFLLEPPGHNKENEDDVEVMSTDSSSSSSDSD

MED1 = MED1 (Mus musculus (endogenous in CH12 cells), UniProt Q925J9 1-1575)
Chain of MED1 (Q925J9 whole entry): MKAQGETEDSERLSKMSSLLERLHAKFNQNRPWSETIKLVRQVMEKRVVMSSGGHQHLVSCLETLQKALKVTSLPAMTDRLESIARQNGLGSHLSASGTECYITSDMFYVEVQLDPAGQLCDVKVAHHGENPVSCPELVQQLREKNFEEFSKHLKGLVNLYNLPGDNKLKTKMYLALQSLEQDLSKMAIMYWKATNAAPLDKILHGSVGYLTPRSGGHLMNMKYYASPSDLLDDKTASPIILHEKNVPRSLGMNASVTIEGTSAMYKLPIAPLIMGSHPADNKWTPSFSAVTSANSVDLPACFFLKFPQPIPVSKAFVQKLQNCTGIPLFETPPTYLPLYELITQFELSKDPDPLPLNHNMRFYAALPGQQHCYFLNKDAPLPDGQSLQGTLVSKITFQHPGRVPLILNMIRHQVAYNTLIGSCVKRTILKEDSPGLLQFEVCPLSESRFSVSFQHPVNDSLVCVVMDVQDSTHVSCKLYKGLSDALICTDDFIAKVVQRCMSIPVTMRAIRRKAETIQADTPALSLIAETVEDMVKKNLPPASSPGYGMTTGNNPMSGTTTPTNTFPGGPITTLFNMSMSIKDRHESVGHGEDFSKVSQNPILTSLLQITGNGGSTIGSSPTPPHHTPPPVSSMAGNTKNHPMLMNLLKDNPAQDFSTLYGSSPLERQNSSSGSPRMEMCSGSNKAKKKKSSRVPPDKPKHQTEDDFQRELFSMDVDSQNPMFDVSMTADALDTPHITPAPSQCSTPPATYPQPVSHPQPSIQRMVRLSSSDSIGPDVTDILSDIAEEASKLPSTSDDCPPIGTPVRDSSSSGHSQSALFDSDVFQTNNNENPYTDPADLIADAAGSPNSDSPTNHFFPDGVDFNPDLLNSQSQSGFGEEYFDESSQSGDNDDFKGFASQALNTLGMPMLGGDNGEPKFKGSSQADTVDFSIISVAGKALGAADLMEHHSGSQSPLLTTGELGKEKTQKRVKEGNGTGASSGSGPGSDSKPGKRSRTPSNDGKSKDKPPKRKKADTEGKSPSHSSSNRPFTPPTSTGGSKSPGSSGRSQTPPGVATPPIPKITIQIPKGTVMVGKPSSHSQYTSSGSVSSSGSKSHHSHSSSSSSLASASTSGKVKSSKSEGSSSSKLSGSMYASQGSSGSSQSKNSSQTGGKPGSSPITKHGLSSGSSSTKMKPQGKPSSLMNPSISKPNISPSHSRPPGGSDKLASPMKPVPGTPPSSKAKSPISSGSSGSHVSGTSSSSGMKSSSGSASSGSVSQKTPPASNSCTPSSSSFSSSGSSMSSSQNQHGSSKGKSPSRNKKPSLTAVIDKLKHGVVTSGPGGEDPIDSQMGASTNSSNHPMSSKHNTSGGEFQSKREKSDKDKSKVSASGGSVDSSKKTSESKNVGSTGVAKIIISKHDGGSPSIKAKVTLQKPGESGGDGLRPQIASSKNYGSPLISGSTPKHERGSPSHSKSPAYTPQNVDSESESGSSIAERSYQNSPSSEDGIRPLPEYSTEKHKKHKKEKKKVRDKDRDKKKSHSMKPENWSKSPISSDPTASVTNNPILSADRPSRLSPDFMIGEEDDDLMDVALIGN

B1: MED21 (natural protein, Mus musculus (endogenous in CH12 cells), UniProt Q9CQ39 1-144, looked up)
chain: MADRLTQLQDAVNSLADQFCNAIGVLQQCGPPASFSNIQTAINKDQPANPTEEYAQLFAALIARTAKDIDVLIDSLPSEESTAALQAASLYKLEEENHEAATCLEDVVYRGDMLLEKIQSALADIAQSQLKTRSVTHSHSLPDS
**Q.** Does B1 bind (MED7)?
**A.** Result: binds

B2: MED11 (natural protein, Mus musculus (endogenous in CH12 cells), UniProt Q9D8C6 1-117, looked up)
chain: MATYSLANERLRALEDIEREIGAILQNAGTAILELSKEKTNERLLDRQAAAFTTSVQHVEAELSAQIRYLTQVATGQPHEGSSYSSRKDCQMALKRVDYARLKISDVARTCEQMLEN
**Q.** Which results are given for B2?
**A.** binding result (MED30): binds; binding result (MED28): binds; binding result (MED22): binds

B3: MED18 (natural protein, Mus musculus (endogenous in CH12 cells), UniProt Q9CZ82 1-208, looked up)
chain: MEAPPVTMMPVTGGTINMMEYLLQGSVLDHSLESLIHRLRGLCDNMEPETFLDHEMVFLLKGQQASPFVLRARRSMDRAGAPWHLRYLGQPEMGDKNRHALVRNCVDIATSENLTDFLMEMGFRMDHEFVAKGHLFRKGIMKVVVYKIFRILVPGNTDSTEALSLSYLVELSVVAPAGQDMVSDDMRNFAEQLKPLVHLEKIDPKRLM
**Q.** Which results are given for B3?
**A.** binding result (MED17): binds; binding result (MED27): binds; binding result (MED20): binds

B4: MED9 (natural protein, Mus musculus (endogenous in CH12 cells), UniProt Q8VCS6 1-142, looked up)
chain: MASSGVAGGRQAEDTLQPPPELLPESKPPPPPQPLPVAALPPPAAPRPQSPAGAKEENYSFLPLVHNVIKCMDKDSPDLHQDLNALKTKFQELRKLIGTMPGIHVSPEQQQQQLHSLREQVRTKNELLQKYKSLCMFEIPKD
**Q.** Does B4 bind (MED4)?
**A.** Result: binds

**Q.** Does B4 bind (MED1)?
**A.** Result: binds
